Experimental data taken from patent US20210332115A1 (Sanofi, published 2021).

B1: VH6/Vκ7-IgG4v2 (antibody)
heavy: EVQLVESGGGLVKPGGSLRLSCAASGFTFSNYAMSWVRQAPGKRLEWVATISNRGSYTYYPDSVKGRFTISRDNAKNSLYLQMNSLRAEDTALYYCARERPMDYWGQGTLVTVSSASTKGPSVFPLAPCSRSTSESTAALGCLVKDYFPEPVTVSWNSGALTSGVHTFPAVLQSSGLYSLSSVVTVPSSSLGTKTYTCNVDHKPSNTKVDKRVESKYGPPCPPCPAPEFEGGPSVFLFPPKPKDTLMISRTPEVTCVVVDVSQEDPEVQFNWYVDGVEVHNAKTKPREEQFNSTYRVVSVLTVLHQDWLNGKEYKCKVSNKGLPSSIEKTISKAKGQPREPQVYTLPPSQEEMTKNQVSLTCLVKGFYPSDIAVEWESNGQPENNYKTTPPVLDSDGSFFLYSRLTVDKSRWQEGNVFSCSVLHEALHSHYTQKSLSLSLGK
light: DIQMTQSPSTLSASVGDRVTITCKASQDVGTAVAWYQQKPGKAPKLLIYWASTRHTGVPDRFSGSGSGTDFTLTISSLQAEDFAVYFCHQHSSNPLTFGQGTKLEIKRTVAAPSVFIFPPSDEQLKSGTASVVCLLNNFYPREAKVQWKVDNALQSGNSQESVTEQDSKDSTYSLSSTLTLSKADYEKHKVYACEVTHQGLSSPVTKSFNRGEC
notes: also called VH6/VK7-IgG4v2; VH6/VK7-IgG4v2_HEK
B2: VH0/Vκ0 (Chimeric) (antibody, V domains shown)
VH: EVQLVESGGALVKPGGSLKLSCAASGFTFSNYAMSWVRQTPEKRLEWVATISNRGSYTYYPDSVKGRFTISRDNAKNTLYLQMSSLRSEDTALYYCARERPMDYWGQGTSVTVSS
VL: DIVMTQSHKFMSTSVGDRVSITCKASQDVGTAVAWYQQKPGQSPKLLIYWASTRHTGVPDRFTGSGSGTDFTLTITNVQSEDLAVYFCHQHSSNPLTFGAGTKLELK
notes: also called chimeric antibody

Experiments:
[1] = biological target: T1, Homo sapiens factor Bb protein (human, UniProt P00751 260-764); assay: SPR single cycle kinetics; against cynomolgus monkey factor Bb
T1 construct: Bought from CompTech (A155); also called complement factor Bb; human factor Bb
T1 sequence (P00751 260-764 limits assumed): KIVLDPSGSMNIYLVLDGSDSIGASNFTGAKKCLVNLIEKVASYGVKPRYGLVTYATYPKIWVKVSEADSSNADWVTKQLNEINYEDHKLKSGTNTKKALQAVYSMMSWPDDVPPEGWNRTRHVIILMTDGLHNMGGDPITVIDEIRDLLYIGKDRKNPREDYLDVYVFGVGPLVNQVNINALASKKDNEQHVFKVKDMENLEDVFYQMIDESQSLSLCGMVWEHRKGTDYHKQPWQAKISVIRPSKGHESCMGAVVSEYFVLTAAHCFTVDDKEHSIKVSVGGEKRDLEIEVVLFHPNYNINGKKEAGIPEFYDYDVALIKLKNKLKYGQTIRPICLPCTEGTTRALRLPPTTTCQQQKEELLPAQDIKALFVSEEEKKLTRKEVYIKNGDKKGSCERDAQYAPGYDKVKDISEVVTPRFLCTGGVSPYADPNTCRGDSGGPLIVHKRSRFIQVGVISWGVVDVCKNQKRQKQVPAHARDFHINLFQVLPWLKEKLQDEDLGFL
Description: The ability of VH4/VK6 and VH6/VK7 to bind to zymogen factor B and factor Bb from both human and cynomolgus monkey was determined by surface plasmon resonance using a Biacore T200. Human factor B and factor Bb were purchased from Comptech and cynomolgus monkey factor B and factor Bb were purified in-house. Briefly, the monoclonal antibodies were captured on a Biacore Series S Protein A chip in HBSP+ (10 mM HEPES, 150 mM NaCl, 0.05% P20 pH 7.4) at a flow rate of 30 μL/min. A five-point concentration series of each analyte was tested for binding using single cycle kinetics with a contact time of 180 seconds per concentration followed by a 600 sec dissociation at 25° C. and a flow rate of […]. Both human and cynomolgus monkey factor B started at a concentration of 500 nM followed by 2-fold dilutions, while human and cynomolgus monkey factor Bb started at concentrations of 30 nM and 150 nM, respectively, followed by 2-fold dilutions. Data were analyzed using the Biacore evaluation software using a 1:1 binding model. […] Binding to human or cynomolgus monkey factor B was barely detectable and the small signal that was observed was dominated by non-specific binding.

[2] = biological target: T1, Homo sapiens factor Bb protein; assay: SPR single cycle kinetics; ratio against VH0/Vκ0
Description: All single cycle kinetic experiments were run at 25° C. with HBS-P+running buffer (pH 7. 4) (GE Healthcare, Little Chalfont, UK).
(§1) Antibodies were diluted in running buffer to a final concentration of 1 μg/ml, based on concentrations assessed by ELISA titer. At the start of each cycle, antibodies were loaded onto Fc2, Fc3 and Fc4 of the Protein A chip (GE Healthcare, Little Chalfont, UK). IgGs were captured at a flow rate of 10 μl/min to give an immobilization level (RL) of ˜63 RU, the theoretical value to obtain an Rmax of ˜50 RU. The surface was then allowed to stabilize. Single cycle kinetic data was obtained with factor Bb (CompTech, Tyler, USA) as the analyte at a flow rate of 30 μl/min to minimize any potential mass transport limitations. Multiple repeats with the reference chimeric antibody were performed to check the stability of the surface and analyte over the kinetic cycles. The signal from the reference channel Fc1 (no antibody) was subtracted from that of Fc2, Fc3 and Fc4 to correct for differences in non-specific binding to a reference surface. A four point, two-fold dilution range from 0. 78 nM to 6. 25 nM factor Bb without regeneration between each concentration was used. The association phase for the four injections of increasing concentrations of factor Bb was monitored for 200 seconds each time and a single dissociation phase was measured for 200 seconds following the last injection of factor Bb. Regeneration of the Protein A surface was conducted using two injections of 10 mM glycine-HCL pH 1. 5.
Single cycle kinetics using cell culture supernatants were performed as described above. […] The relative KD was calculated by dividing the KD of the VH0/Vκ0 reference antibody by that of the humanized variant assayed in the same experiment.

[3] = biological target: T1, Homo sapiens factor Bb protein; assay: BLI Octet, biotinylated antibody on SA biosensors
Description: Briefly, biotinylated antibodies were loaded onto SA Biosensors equilibrated in PBS, 0.1% BSA, 0.02% Tween-20 (assay buffer). After a 60 second baseline in assay buffer, antibodies were loaded onto the probes for 180 seconds, followed by another 60 second baseline. Association to human (Comptech) or cynomolgus monkey factor Bb (purified in-house) was measured for 300 seconds, followed by a 300 second dissociation. Kinetic parameters were calculated by the Octet Analysis software using a 1:1 binding model.

[4] = biological target: T1, Homo sapiens factor Bb protein; assay: SPR single cycle kinetics, IgG on Protein A chip, factor Bb analyte
Description: In order to assess the binding of all humanized variants, single cycle kinetic analysis was performed on supernatants from transfected cell cultures. […] All single cycle kinetic experiments were run at 25° C. with HBS-P+running buffer (pH 7. 4) (GE Healthcare, Little Chalfont, UK).
as §1
The sensorgrams and fitted data for the single cycle kinetics are shown in FIGS. 1A-1D and the kinetic parameters measured for the interaction of factor Bb with each antibody are shown in Table 7. The relative KD was calculated by dividing the KD of the VH0/Vκ0 reference antibody by that of the humanized variant assayed in the same experiment.

fold higher affinity for human factor Bb compared to cynomolgus monkey factor Bb [1] | Relative KD [2] | Kd [3] | Kd [4] | koff [4] | kon [4] | Binder
~10 fold |  |  |  |  |  | B1
 | 1 | 2 nM | 1.76 nM | 0.00103 s⁻¹ | 585000 M⁻¹ s⁻¹ | B2
